For assay [1], the target named is T1, soluble murine CD25 (His-tagged recombinant mouse IL-2Rα/CD25, R&D Systems) (mouse, UniProt P01590 22-236, limits assumed).
T1 construct: Bought reagent, described only as soluble and His-tagged; also called soluble CD25; mouse CD25
T1 sequence (looked up): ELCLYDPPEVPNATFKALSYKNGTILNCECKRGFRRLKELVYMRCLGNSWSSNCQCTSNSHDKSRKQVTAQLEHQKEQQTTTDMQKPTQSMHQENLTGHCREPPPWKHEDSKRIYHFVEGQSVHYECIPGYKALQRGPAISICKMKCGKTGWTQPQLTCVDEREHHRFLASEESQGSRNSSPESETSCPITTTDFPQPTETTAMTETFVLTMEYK
Description: not stated (legend of the schematic FIG. 5).

Assay [2] deals with T1, soluble murine CD25 (His-tagged …). Put plainly: yeast surface display, titration with soluble murine CD25. As to the method:
The equilibrium dissociation constant of any particular clone was determined essentially as described (75). […] For picomolar affinity mutants of library 6.2, non-displaying EBY100 cells were spiked in at 90:10 to facilitate pelleting the low numbers of displaying cells. The equilibrium dissociation constant Kd was determined by fitting CD25 concentration and flow cytometry fluorescence data to the monovalent binding isotherm: […]

For assay [3] the target is unchanged. Put plainly: yeast surface display, flow cytometry. As to the method: EBY100 yeast harboring each of these clones were grown and induced as described (Chao et al. Nat Protocols 2006; 1(2):755-768). CD25 binding capacity was determined by labeling induced yeast with 50 nM soluble murine CD25 (R&D Systems). Proper protein folding was determined by labeling yeast displaying IL-2 variants before and after thermal denaturation with anti-mouse IL-2 antibodies. […] Anti-mouse IL-2 antibodies used were S4B6 (gift of Jianzhu Chen Lab, MIT), JES6-1A12, and JES6-5H4 (eBioscience).
On the technique in general: A flow cytometer gives signals particle by particle.

Numbering of substitutions follows the chain as printed. In names and notes the source's numbering stands.

By Kd is commonly meant the free concentration of one partner at which half of the binding sites on the other are occupied at equilibrium, for simple one-to-one binding.

B1: D265AFc/IL-2 (monovalent mouse IgG2a D265A Fc / wild-type mouse IL-2 heterodimer) (Fc fusion)
chain 1: EPRVPITQNPCPPLKECPPCAAPDLLGGPSVFIFPPKIKDVLMISLSPMVTCVVVAVSEDDPDVQISWFVNNVEVHTAQTQTHREDYNSTLRVVSALPIQHQDWMSGKEFKCKVNNRALPSPIEKTISKPRGPVRAPQVYVLPPPAEEMTKKEFSLTCMITGFLPAEIAVDWTSNGRTEQNYKNTATVLDSDGSYFMYSKLRVQKSTWERGSLFACSVVHEGLHNHLTTKTISRSLGKGGGSAPTSSSTSSSTAEAQQQQQQQQQQQQHLEQLLMDLQELLSRMENYRNLKLPRMLTFKFYLPKQATELKDLQCLEDELGPLRHVLDLTQSKSFQLEDAENFISNIRVTVVKLKGSDNTFECQFDDESATVVDFLRRWIAFCQSIISTSPQHHHHHH
chain 2: EPRVPITQNPCPPLKECPPCAAPDLLGGPSVFIFPPKIKDVLMISLSPMVTCVVVAVSEDDPDVQISWFVNNVEVHTAQTQTHREDYNSTLRVVSALPIQHQDWMSGKEFKCKVNNRALPSPIEKTISKPRGPVRAPQVYVLPPPAEEMTKKEFSLTCMITGFLPAEIAVDWTSNGRTEQNYKNTATVLDSDGSYFMYSKLRVQKSTWERGSLFACSVVHEGLHNHLTTKTISRSLGKGGGSDYKDDDDK
notes: also called D265A Fc/wt mIL-2
Turning to B1, in assay [1], the Kd is roughly 50 nM.

B2: mIL-2 QQ 6.2-8 (yeast-displayed) (ligand)
chain: APTSSSTSSSTAEAQQQQQQQQHLEQLLMDLQELLSRMEDHRNLRLPRMLTFKFYLPKQATELEDLQCLEDELEPLRQVLDLTQSKSFQLEDAENFISNIRVTVVKLKGSDNTFECQFDDEPATVVDFLRRWIAFCQSIISTSPR
notes: Selective-reversion mutant of a library 6.2 clone; also called reversion mutant
Take B2: the binding result in assay [2] is “binds”.

B3: wild-type murine IL-2 (yeast-displayed) (ligand)
chain: APTSSSTSSSTAEAQQQQQQQQQQQQHLEQLLMDLQELLSRMENYRNLKLPRMLTFKFYLPKQATELKDLQCLEDELGPLRHVLDLTQSKSFQLEDAENFISNIRVTVVKLKGSDNTFECQFDDESATVVDFLRRWIAFCQSIISTSPQ
notes: Aga2p fusion with HA and c-myc tags; also called mIL-2; mouse IL-2
Consider B3, for which the binding result in assay [3] is recorded as “binds”.

B4: mIL-2 QQ 6.2-4 (yeast-displayed) (ligand)
chain: B3 chain with N44D, Y45S, K49R, K68E, G78E, H82Q, S126P, D131G
notes: as for B2
On to B4, for which the binding result in assay [2] was “binds”.

B5: mouse IL-2 E76G (yeast-displayed) (ligand)
chain: B3 chain with E76G
notes: also called E76G IL-2
For the molecule B5, the binding result in assay [3] is reported as “no binding (tested: 50 nM)”.

B6: mIL-2 QQ 6.2-13 (yeast-displayed) (ligand)
chain: B3 chain with N44D, Y45H, K49R, K62E, G78E, H82Q, S126P
notes: as for B2
On to B6, for which the binding result in assay [2] was “binds”.

B7: mouse IL-2 E76A (yeast-displayed) (ligand)
chain: B3 chain with E76A
notes: also called E76A IL-2
As to B7, the binding result in assay [3] is on record as “no binding (tested: 50 nM)”.

B8: mouse IL-2 E76R (yeast-displayed) (ligand)
chain: B3 chain with E76R
notes: also called E76 mutant
In the case of B8, the binding result in assay [3] is on record as “no binding (tested: 5 or 50 nM soluble CD25)”.

B9: mouse IL-2 E76F (yeast-displayed) (ligand)
chain: B3 chain with E76F
notes: also called E76 mutant
As for B9, the binding result in assay [3] was “no binding (tested: 5 or 50 nM soluble CD25)”.

B10: mIL-2 QQ 6.2-10 (yeast-displayed) (ligand)
chain: B3 chain with N44D, Y45H, K49R, K62E, K68E, G78E, H82Q, S126P
notes: also called reversion mutant
Regarding B10, the binding result in assay [2] is given as “binds”.

B11: mIL-2 QQ 6.2-11 (yeast-displayed) (ligand)
chain: APTSSSTSSSTAEAQQQQQQQQQHLEQLLMDLQELLSRMEDSRNLRLPRMLTFKFYLPEQATELKDLQCLEDELEPLRQVLDLTQSKSFQLEDAENFISNIRVTVVKLKGSDNTFECQFDDEPATVVDFLRRWIAFCQSIISTSPQ
notes: as for B2
Turning to B11, in assay [2], the binding result is “binds”.
